{
  "source": "patent US5276170A",
  "about": "“Azido-substituted aromatic amino acids” (The United States of America as represented by the …, priority 1992, dated 1994)",
  "proteins": {"B1": {"name": "tyrosine phenol-lyase (Citrobacter freundii) (protein)", "chain": "MNYPAEPFRIKSVETVSMIPRDERLKKMQEAGYNTFLLNSKDIYIDLLTDSGTNAMSDKQWAGMMMGDEAYAGSENFYHLERTVQELFGFKHIVPTHQGRGAENLLSQLAIKPGQYVAGNMYFTTTRYHQEKNGAVFVDIVRDEAHDAGLNIAFKGDIDLKKLQKLIDEKGAENIAYICLAVTVNLAGGQPVSMANMRAVRELTEAHGIKVFYDATRCVENAYFIKEQEQGFENKSIAEIVHEMFSYADGCTMSGKKDCLVNIGGFLCMNDDEMFSSAKELVVVYEGMPSYGGLAGRDMEAMAIGLREAMQYEYIEHRVKQVRYLGDKLKAAGVPIVEPVGGHAVFLDARRFCEHLTQDEFPAQSLAASIYVETGVRSMERGIISAGRNNVTGEHHRPKLETVRLTIPRRVYTYAHMDVVADGIIKLYQHKEDIRGLKFIYEPKQLRFFTARFDYI"}},
  "substrate": "[N-]=[N+]=Nc1cc(O)ccc1C[C@H](N)C(=O)O",
  "experiment": "Tyrosine phenol-lyase catalyzed hydrolytic cleavage to ammonium pyruvate and 3-azidophenol",
  "format": "biochemical",
  "details": "other: as substrate",
  "data": [
    {"protein": "B1", "values": [
      {"measurement": "Km", "result": 1000, "unit": "µM"}
    ]}
  ]
}
